Series [1] deals with unilateral ureteral ligation in Sprague-Dawley rats. Kind of series: Unilateral Ureteral Obstruction (UUO) renal fibrosis model. The settings on record: for loss of medullary tissue in the kidney: untreated about 24%. The series is classed as in vivo, rat. The source says: This UUO model was employed essentially as described (Moller, et al. (1984) Virchows Arch 402: 209-237, the entire contents of which are incorporated herein by reference). Sprague-Dawley rats (about 250 g) underwent either a sham operation (ureter manipulated but not ligated) or unilateral ureteral ligation. Two ligatures, 5 mm apart, were placed in the upper two-thirds of the ureter over a section of polyethylene tubing placed around the ureter (see FIG. 17). The suture tied to obstruct the ureter was removed along with the tubing at day 5, relieving the obstruction. […] Uremia is avoided by the function of the contralateral kidney, which undergoes hypertrophy and hyperplasia as the obstructed kidney is destroyed. The renal injury of UUO is mediated in part through stimulation of renal angiotensin II production, which activates type-1 A-II Receptor and the downsteam TGF-β in a cascade of events culminating in tubulointerstitial inflammation and fibrosis. Inhibition of angiotensin II production by ACE inhibitors (or inhibition of A-II receptors) decreases expansion of the renal interstitium associated with fibrosis.
The effect of OP-1 on Renal fibrosis has been published (Hruska, et al. (2000) Am J Physiol Renal Physiol 279:F130-43, incorporated herein by reference), and a summarization is as follows. […] Additional effects of OP-1 have been observed in this rat UUO model.

Series [2] is described as follows: solubility of mature OP-1 with casein. The series is classed as physicochemical. To be noted: addition of 0.2% casein; mature active form of OP-1. The source says:
Association of the mature morphogen dimer with a morphogen pro domain results in the pro form of the morphogen which typically is more soluble in physiological solutions than the corresponding mature form. In fact, endogenous morphogens are thought to be transported (e.g., secreted and circulated) in the mammalian body in this form. This soluble form of the protein can be obtained from culture medium of morphogen-secreting mammalian cells, e.g., cells transfected with nucleic acid encoding and competent to express the morphogen. Alternatively, a soluble species can be formulated by complexing the mature, morphogenically active polypeptide dimer (or an active fragment thereof) with a morphogen pro domain polypeptide or a solubility-enhancing fragment thereof. Solubility-enhancing pro domain fragments can be any N-terminal, C-terminal or internal fragment of the pro region of a member of the morphogen family that complexes with the mature polypeptide dimer to enhance stability and/or dissolubility of the resulting noncovalent or covalent complex. Typically, useful fragments are those cleaved at the proteolytic site Arg-Xaa-Xaa-Arg (SEQ ID NO: 30). A detailed description of soluble complex forms of morphogenic proteins, including how to make, test and use them, is described in WO 94/03600 (PCT US 93/07189). […]

“Also recorded” adds a separate entry of the source.

B1: OP-1: osteogenic protein-1 (OP-1, also known as BMP-7), morphogen of the OP/BMP family; OP-1 used interchangeably with sBMP-7 (protein)
chain: STGSKQRSQNRSKTPKNQEALRMANVAENSSSDQRQACKKHELYVSFRDLGWQDWIIAPEGYAAYYCEGECAFPLNSYMNATNHAIVQTLVHFINPETVPKPCCAPTQLNAISVLYFDDSSNVILKKYRNMVVRACGCH
For the molecule B1, the figures for the “loss of medullary tissue in the kidney” value in series [1] (OP-1 at 100 μg/kg) and in series [1] (OP-1 at 300 μg/kg) were “about 16%” and “about 13%”, respectively. In addition, the “loss of medullary tissue / medullary necrosis (in words)” value in series [1] (UUO rats) was “reduces tubular atrophy and medullary necrosis; also recorded: significantly reduced the loss of medullary tissue”. In addition, the increase in solubility in series [2] was 80%.

(Values after US20050272649A1, “Conjoint administration of morphogens and ACE inhibitors in treatment of chronic renal failure” (priority 2002, published 2005).)
